± gives the standard deviation of the averaged measurements.
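Further: PSI is a weighted mean of sequencing reads over stability bins, variants kept only with over 10 reads, mCherry proximal and sfGFP distal, peptide attached via GGGS linker.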

In the series the test system is Saccharomyces cerevisiae. The series is described as follows: protein stability index of tFT-peptide fusion (C-terminal peptide) (PSI (0-1 scale)); higher = more stable (slower turnover). To be noted: genetic background: wild type; temperature: 30 C.
LVQCSAISARRF registered a protein stability index of 0.735 ± 0.026. In turn, LVRFTDPIPQQA registered a protein stability index of 0.615 ± 0.026.

LVRGFVDKYVIS returned a protein stability index of 0.652 ± 0.01. The sequence LVRLRRSLRLFL gave a protein stability index of 0.539 ± 0.037. Then LVRPRFSPPPTP, with 0.6882 ± 0.0057; and LVRVLHRSHASA, with 0.685 ± 0.031; and LVSPPSPPLPPP, with 0.728 ± 0.12. LVVSHDSSLMMR came in with a protein stability index of 0.7363 ± 0.0045. LVVTTLQSVVLG showed a protein stability index of 0.559 ± 0.085. In the case of LVVVRTGPPRWY, the protein stability index worked out at 0.669 ± 0.0073. LVWLGCGLGGLC had a protein stability index of 0.745 ± 0.054. Take LWCCVFGLPSRG: the protein stability index worked out at 0.696 ± 0.072. Then LWCDTRIDMSRH, with 0.737 ± 0.038.

Take LWCFVVGEVNGV: the protein stability index was determined as 0.6209 ± 0.0034. LWFCGLWPRVSG gave a protein stability index of 0.6384 ± 0.00068.

On to LWGPGAVWGRGR, for which the protein stability index stood at 0.699 ± 0.049. LWGPGGVWGRGR showed a protein stability index of 0.697 ± 0.05. For the sequence LWIVLFRKCELP, the protein stability index was 0.592 ± 0.018.

Turning to LWKVVAPRDESP, the protein stability index worked out at 0.67 ± 0.023. Then LWPLPSASVILL, with 0.515 ± 0.12. The same measure for LWPYSRYSFSPP: 0.726 ± 0.02; for LWSICWNRVFPF: 0.6973 ± 0.0017; for LWVGSGGARCVV: 0.624 ± 0.03. Take LYGLFRIADVRR: the protein stability index came out at 0.652 ± 0.15. The same measure for LYGSIPFGCRIL: 0.94 ± 0.018. With LYPLTPWYVVPP, the protein stability index was 0.715 ± 0.11. LYSFSIPPSLGS yielded a protein stability index of 0.735 ± 0.085. Consider LYSPPPPPIPSP, for which the protein stability index came out at 0.7046 ± 0.0067. Sequence LYWSGFCPVFWG had a protein stability index of 0.7164 ± 0.0027. As to MANYIVEGGEPY, the protein stability index turned out to be 0.723 ± 0.025. Consider MCVGGGCGRGGA, for which the protein stability index was determined as 0.719 ± 0.14. In turn, MCVGSLMHKLRW registered a protein stability index of 0.6988 ± 0.0043. MDDIAAYTGSCT gave a protein stability index of 0.661 ± 0.032. In turn, MDTYIQKKKYIK displayed a protein stability index of 0.69 ± 0.0099. MENEDYIVRKKK displayed a protein stability index of 0.73 ± 0.054. On to MFGTVVFGAHRR, for which the protein stability index was determined as 0.749 ± 0.015. The same measure for MFVTQTGNRCKA: 0.668 ± 0.018.

With MGFARDVYGSVC, the protein stability index came out at 0.702 ± 0.022. Then MGGTGRGGRREI, with 0.667 ± 0.04; and MGGVGGLCGMWA, with 0.683 ± 0.036. In the case of MGPLHVMLQRAR, the protein stability index is 0.805 ± 0.16. MGVCLGPPTVWR came in with a protein stability index of 0.684 ± 0.043. The sequence MIKDVYIDNDNV displayed a protein stability index of 0.694 ± 0.02. In turn, MLFWDVGLLVFN showed a protein stability index of 0.579 ± 0.049.

As to MLFWPPPSLRMP, the protein stability index was 0.701 ± 0.0083.

The sequence MLPTPSPPRPPF returned a protein stability index of 0.698 ± 0.021.

On to MNFCLGVFVDLA, for which the protein stability index is 0.6857 ± 0.0037.

The sequence MRECGLSEARGG displayed a protein stability index of 0.651 ± 0.021.

Consider MRKGNGGGPRRR, for which the protein stability index was determined as 0.728 ± 0.019.

MRLTLGSHMAYY: the protein stability index came to 0.69 ± 0.082. As for MTRGRWAKKTAK, the protein stability index was determined as 0.688 ± 0.038. MVKLGVGREEVV had a protein stability index of 0.655 ± 0.018. MVVEGLERWGRV: the protein stability index amounted to 0.723 ± 0.045. In the case of MWPCRVRWLDHW, the protein stability index is 0.73 ± 0.034. For the sequence MYASVGAIHPRL, the protein stability index is 0.738 ± 0.074.

For NACLRNPTTKGG, the protein stability index stood at 0.694 ± 0.086. The same measure for NAFSHSASRVIS: 0.682 ± 0.016; for NAGNDVFSLDIC: 0.683 ± 0.034; for NCRGNLDFGPLV: 0.727 ± 0.042.

Take NDLRRAVSARYV: the protein stability index was 0.676 ± 0.032. As to NFGLYGAPFTLG, the protein stability index is 0.665 ± 0.041. In the case of NFNRKTNGVFRS, the protein stability index was 0.693 ± 0.059. The same measure for NFRILIKKRGDE: 0.643 ± 0.071. Turning to NGAGRGMVGGCG, the protein stability index was determined as 0.666 ± 0.079.
